Assay [1] has as its target T1, hu4-1BBIg fusion protein (extracellular domain of H4-1BB fused to the constant domains of a human IgG1 … (human, UniProt Q07011 24-186; P01857 99-330 = IgG part).
T1 construct: extracellular domain;domain: constant domains of a human IgG1 antibody; also called immobilized H4-1BB; Human 4-1BB receptor; not shown: thrombin cleavage site between the 4-1BB and Ig portions
Description: SPR BIAcore 3000, antibody 10-100 nM over low-density immobilized H4-1BB (557 RU), global fit, Bivalent Analyte Model (KA1). Here is the method: (§1) These studies were carried out on a BIAcore 3000 instrument (BIAcore Inc., Piscataway, N.J.). Dilutions of the antibodies were injected under identical conditions over sensorchip surfaces of immobilized H4-1BB.
(§2) Human 4-1BB receptor was immobilized covalently to a low density on a carboxy-methylated dextran surface of a BIAcore sensorchip (BIAcore Inc., Piscataway, N.J.). Through primary amino groups the fusion protein, injected at 2 μg/mL in 10 mM acetate buffer, pH 5.0, bind to an EDC/NHS-activated surface. […] After regenerating with 10 mM glycine, pH 2.0 the surface was ready for binding studies. Antibodies 39E3 and hu39E3.G4 were diluted to concentrations between 10 nM and 100 nM using HBS-EP buffer. All mAb dilutions were injected over two flow cells (FC) at a flow rate of 25 μl/minute. FC1 served as a negative control, FC2 had low density of human 4-1BB (557 RU). Bound anti-human 4-1BB mAbs were removed by regeneration with 10 mM Glycine pH 1.75.
(§3) Kinetic parameters were calculated with BIAevaluation program (version 3.1) (BIAcore Inc., Piscataway, N.J.). A global curve fit analysis was performed using a Bivalent Analyte Model (BIAcore Inc. Piscataway, N.J.). […] The binding affinities for the parental mAb, 39E3, and the humanized anti-H4-1BB mAb are shown below in Table 3.
A general note: In SPR one partner is held on a chip, and binding of the other changes the refractive index at the surface.

For assay [2], the target named is T1, hu4-1BBIg fusion protein (extracellular …). Nature of the assay: SPR BIAcore 3000, antibody 10-100 nM over low-density immobilized H4-1BB (557 RU), global fit, Bivalent Analyte Model (KD1). Here is the method:
as §1, §2, §3

For assay [3] the target is unchanged. Nature of the assay: SPR BIAcore 3000, antibody 10-100 nM over low-density immobilized H4-1BB (557 RU), global fit, Bivalent Analyte Model (Ka1). Here is the method: as §1, §2, §3
For assay [4] the target is unchanged. Description: SPR BIAcore 3000, antibody 10-100 nM over low-density immobilized H4-1BB (557 RU), global fit, Bivalent Analyte Model (Kd1). How it is done:
as §1, §2, §3

What is called kon is a measure of how fast the partners come together. Read a low kon as slower complex formation. For orientation: koff means the rate constant with which the complex falls apart.

T1 sequence (Q07011 other isoform, or with tags, fused parts or gaps): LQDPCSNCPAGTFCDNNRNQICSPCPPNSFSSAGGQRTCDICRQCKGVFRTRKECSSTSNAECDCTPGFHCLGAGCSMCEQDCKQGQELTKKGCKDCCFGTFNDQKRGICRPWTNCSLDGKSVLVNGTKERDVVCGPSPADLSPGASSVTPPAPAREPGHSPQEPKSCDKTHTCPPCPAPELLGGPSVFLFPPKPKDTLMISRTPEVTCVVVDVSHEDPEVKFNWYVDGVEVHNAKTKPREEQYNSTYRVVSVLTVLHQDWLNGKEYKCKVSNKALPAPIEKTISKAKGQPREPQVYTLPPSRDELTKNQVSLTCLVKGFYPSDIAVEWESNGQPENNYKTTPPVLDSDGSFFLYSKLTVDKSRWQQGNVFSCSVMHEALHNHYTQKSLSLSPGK

B1: hu39E3.G4 (humanized 39E3, IgG4) (antibody, V domains shown)
VH: EVQLVESGGGLVQPGGSLRLSCAASGFTFSDYWMSWVRQAPGKGLEWVADIKNDGSYTNYAPSLTNRFTISRDNAKNSLYLQMNSLRAEDTAVYYCARELTGTWGQGTMVTVSS
VL: DIVMTQSPDSLAVSLGERATINCKSSQSLLSSGNQKNYLAWYQQKPGQPPKLLIYYASTRQSGVPDRFSGSGSGTDFTLTISSLQAEDVAVYYCLQYDRYPFTFGQGTKLEIKR
notes: Humanized IgG4 with a hinge mutation (after Angal et al.), made in CHO DG-44; also called humanized 39E3.G4 antibody; humanized anti-H4-1BB mAb
In the case of B1, the Ka in assay [1] came to 1.87e+08 M⁻¹. The same molecule yielded a Kd in assay [2] of 5.3 nM. Also, in assay [3], the kon came out at 4740 M⁻¹ s⁻¹. The koff in assay [4] amounted to 2.53e-05 s⁻¹.

B2: mAb 39E3 (parental rat anti-human 4-1BB monoclonal antibody) (antibody, V domains shown)
VH: EVQLVESGGGLVKPGASLKLSCVASGFTFSDYWMSWVRQTPGKTMEWIGDIKNDGSYTNYAPSLTNRFTISRDNARSTLYLQMNNVRSEDTATYYCTRELTGT
VL: DIIMTQSPFSLAVSEGEMVTMNCKSSQSLLSSGNQKNYLAWYQQKPGQPPELLIYYASTRQSGVPDRFIGSGSGTDFLTLTISDVQAEDLADYYCLQYDRYPFT
notes: constant regions are not; also called parental antibody; parental mAb
In turn, B2 showed a Ka in assay [1] of 1.48e+08 M⁻¹. This molecule gave a Kd in assay [2] of 6.7 nM. In assay [3], this molecule came in with a kon of 7070 M⁻¹ s⁻¹. In assay [4], this molecule registered a koff of 4.77e-05 s⁻¹.

Source of the values: patent publication US20040105855A1 (Bristol-Myers Squibb, published 2004).
